Assay: soluble fraction after stress (log2 fold change); higher = more stays soluble; pooled small domains, quantitative proteomics
Details: stress: 75 degC
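Also: 20 min heating vs room temperature control held 20 min.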

Sequence	soluble fraction (log2)
HMSKPTLTDELLTLDLFEEIIKAKENAKGANKRFSLVGFLESKYIVDQEMLPKVNVKVTEYYNLTREN	-1.8
HMSKPVVWIVGDSTVSAFTDNYYYPRYGWGTQIDKYLDGTFEVKNIALSGRSSTSYTADKEYGELIAG	0.293
HMSKRIFPNEFQRNSPDAMVMLDKMNLSRINVDPLTKSLTLNGGGSVKTLLNGREVSAVEIAALSP	0.124
HMSKSENLYSAARELIPGGVNSPVRAFTGVGGTPLFIEKADGAYLYDVDGKAYIDYVGSWGPMVLGHNHP	-0.337
HMSKSIEEIYDEAIRSLANEEYDSAKKLFSYLIDNFSDPEKLPLSLFWLGEIEFSSSNFDQSKIHYIE	-0.15
HMSKSIGEALKEERRSLGLTQEQFIKGIISESFYSKVERGKNEIVAVDLLKILAANNISEEEFLSKLN	-0.694
HMSKSPELMEKIKEFAEGYFRENGETPSNKTIAGAMGMGRSTVYYYLVDMAQRGMISYENGVISTEKIRKL	-1.4
HMSKTDYKILYSDLNREDAKQLSLLLEDKKIPYQTSEDGKTIKIPEGMVNRFRMEVATMGVNF	-0.0248
HMSKTKDVLVQLMAERGLTQSDIARALSVRPQAVQQWVSGKTRPTGKNLEALAEFLQLPPAVIVHGP	-0.282
HMSKTQVKSVLDDIKGIGVVRRKALIKHFNDIEAIKAAQLAELKAVAGMDSKSAQSVYDFFHK	-0.453
HMSKYERVYTGSEINVNHLKSQLEDAGISSVVRNDHESAIRAGFGSDYDRGVLLFVEKDNLLRAKHIIEKT	0.126
HMSKYLAFTVKKNDELLPFIEKALNGISHTKAKAILANGGAMVNKNTITQYNYPLTPGMTVEISRH	-0.5
HMSLDLNENEKTIFDIIQNKKTIRLSELKIEAGLSNKGWDKAMKSLTKQGLAKVVKTEDQLTVKLL	-0.499
HMSLEDNEVIQRMKVILDRFDEETAVDRTTAFKAVLDHIGKMDAESKTLEHMAEMLEALLDKVLEE	-1.09
HMSLGPNAYGKPATALNILRETVMGKELFDHAFKTYSKRWMFKHPSPEDFFRTMEDASAVDLDWFWR	0.178
HMSLGSQEYSIGFRNGDSTYHYIDKALKELAYEGVIDELSTQWFGSSRAVDFPSQKDALSELGYIA	-0.123
HMSLGSSLFHARKKSGLTQEAVAEKLGVSRQTISKWETNETLPDIRQSKGLAMLYHMTLDELIE	-0.422
HMSLGTDVVPDFTGKGIKEAKTEFAAYSEGELYIIGEGEKVKEQFPLPGEKVNKNSDLILYV	0.0388
HMSLIDLLQLNRKSKKLTLMNLVEMTGLSYGKVYRIFNGGIDKPTPDSLKLLAKALQLDYSYLFHKAGYL	-0.468
HMSLIEQKSQIPLVQGGQRVDKVAAALFTDFSRAELTGWIQQGALTLDGAVVKPKYKVLGGEWLYLRASQS	-1.75
HMSLNIIEITAKKEINELKSFNIIYFNFDKNNSIYEYKISEREKKEILEIEKIIKNSDNVTNYEIRYSF	-1.31
HMSLNQRIKEARIKMGYTQEQLGNLIGVAKTTISGYEKNREPDAATIGLIIDALKVDANFLFQ	-2.06
HMSLNSELIARIENLIASIEDKRSWGYGFAESVLGQVQAGATLSPRQLEIIAKLEKENSYSVQLERQ	-1.16
HMSLPALSAEEQKIVDALHGTPKGVDDIIAETGISSGALLRSLTMLELKKVIVRLPGNRIAPK	-1.53
HMSLPDREVVLETSSDSYYHFKTDHFQRQITYSAVRNAPVRLVTISAERAFEVISLNRRGERPEHLE	-3.24
HMSLQEISDLISQAERADQEQLKEVLKQLHQVESGNQPMSKGFLSSALSTLNKYPALITSIGQLLFKLAT	-0.217

Sequence	soluble fraction (log2)
HMSLSEGVSADVVADVQARLMELGYMDEDDPDGNFSESTRIAVEHFQQQAGLPVTGTVDKATLDALNSPD	0.264
HMSLSQLGLTPRQTDVLALLLKGQPNKLIARELGLSVETVKDHVAAVLRALNVSSRTQAVIAVSQMLQ	-2.13
HMSLSVEESYKLLDISPSAGDEEITKKFRLLALKYHPDKNRSKIEWANNIMSRLNQAYSVIMSSRFESNAE	-1.6
HMSLTTKSVEETLGITRQTLHNWIKEGLLPAPKKDFRNWYIWSDEDLENLRNIIEQKTLINNKKQAV	0.203
HMSMANKKDFILDTAQKLFMEQGFDQTSISQILEATQIARGTLYYYFSSKEEIMDAIIERTIEQ	-0.966
HMSMDYYNILGVNRNASTGEIKKAYKRASMQHHPDRGGNSDEFIKVQQAYDTLSDNHKRQAYDNP	-0.0907
HMSMDYYSTLGVSKTASASDIKKAYRKLAMANHPDKGGDSAKFAKITEAYDVLKDPQKRNNYDQFGTA	0.0592
HMSMEQAKAEEIEKLGDNAPERLQAAALFAEKFFPQDVMDAVYKITETADGVRAIEHIMQTVK	-1.11
HMSMISLPNFVGKDIETVKAWAKENGITLIINKVEDSAKKDTVISQNPTNSDYSKILKGSAFTVNIAKE	0.0389
HMSMRILNHTVVKILKRYRIATDEQLQPLLDEAERSGRSLQDVVLDAKLVSETELTKLFADYAD	-3.66
HMSMVGNIEKILVTGESKKSSELLAGRTENNRVVNFTGEKVLIGSMVNVRIEEVFPNSLGGSYLPS	-0.133
HMSNAIDDAVEKVISENLDLAKERGLQSMGPLMGLVMKELGGTADGKAVSEALRRKISEISD	0.413
HMSNEDAYIKLRNGFLATLSEADLLLFTLREEGKTQKEIADQLGYKTHSAVSKRLQTMRGQFEGYLKTQ	-1.03
HMSNEIIFNQKSITRFLMNPENNSPMIYPLELGHEMKVIKKNNDWLNVTDEKTGLNGWVISDDFGLTKPEG	-0.118
HMSNETLFEFFEKNISQLTPTLVDNINRSLAVHSKKNVKLAIMIAAKSNVRNWNYISAILNRWEKE	-2.4
HMSNIAQRLVLENALAKLNQEQQTIIDLRIIKGYSVAETARLLGKTESAVRTAQYRALKELAGILEED	-2.07
HMSNIIIYPNPTNDGLIHIKGSKFPFNYALYNLSGKLIETGKKNQIQLNDRGVYLLKIQTEGQTYFKKII	-0.16
HMSNNILEISSNKKNMKIQENKNLVESYYSKTENLYSFKLVFKNKRDLDQFLKEVYEDDSTINYKTSS	-1.27
HMSNPPLPFLAKTKVSWTGEQDGDLGFLENEVVKVFHVVDELWWQGSLSRNGAEGIFPRDFVEVISAP	-2.09
HMSNSWSYSEFMKAVESGQVESVTISGQSIKGTSRGGQAFESVLPAFDDKLMDTLLVNDVEVIGEKP	0.556
HMSNTGDIIRKLREESGVTAKELAHRIGLSASQMSRLESGKRRINSEVLTRIARALEVAPSQLID	-0.439
HMSNTIFGINGPVVTVASKDFSMQEMVYVGNERLVGEVISIDDDLTTIQVYEVTTGLKPGEPVVGTGSAM	-0.34
HMSNVDYSQFKKDTVVEHTKFGRGIIIQTSGDGEDKIAAIAFKGLGVKRFSLAIAAASLKIIGKNDE	-2.49
HMSNYFIEISKDSLARINDEIELDVLRETSDTIIISQEEKTNTISSFIKVLFERQIDILSIQNR	0.0911
HMSNYYNILGVNKSSTQDEIKKAFRKKAVEHHPDKGGNEATFKKINEAYNTLSDNNKRHMYDMQQSG	0.119
HMSPDALSNLPIGSEIKFTLWDGTEKRLVKHPAAYQFSRPFWMNLNEYTYVPVNRIPKNYEVIRL	0.182

Sequence	soluble fraction (log2)
HMSPEVEEISIDHLKAGMRILSDLRLPNGTLVAPKGSVVDAHFIKIVENYVISYFGNPFPDRIKVIM	-1.95
HMSPEWTPAEQDAIDKASEGEYGEALQRVLSGDYEPMDIPDALWGVQQVADKDTYSSIQKKIADIGN	0.383
HMSPIPLPVERAIHKLGSDISLARRRRHISQASLAERMGASLSTVRRMEKGDVRVPIHFFARALHVFG	0.123
HMSPIQLKYNEYLIYIDEGKINTAEIHGNKITGKLKEGSEYVVTIYPELIASITEKLAENNVQTQLIQ	-0.0829
HMSPLPDRESLGAIEKLISLLGSSEWTVREKATRELGAFGYLARPVLQRELATSGDPEVSRRLERILSNL	-0.545
HMSPLTPEEAEVLRILGDHGDMTVDNIATEGKMSAAAVLRVLGVLSAYGLAVPSGPGRWGSRAA	-0.462
HMSPPPRPSHPEAAGLRHLAFEVDNIDDAVRHLDRLGVPHEPVRTDEYTGRRFLFFTDPDRLPLELYEK	-0.432
HMSPQIDYFDDEELDVYRQIAPEAYTDEQIEVFRDILYTLRPEEVEEWLISLEKREINLPLILRQEAIELI	0.481
HMSPRQVTAVRSGSPMPVLPGEDWRLYDASGALVARGSGAAPIPKSTGLLRLNSEGLDGLADRWIWVL	-0.553
HMSPSRRENLTAAAKEYFVNTQIRHKTFGNGVIIKRSGNIAAIRFDNGTIKQIDLIAALQAKVLSIL	-2.71
HMSPSTNKTFSFSKENISIGQTVFIKKLNQNATVLTLPNKSNQLQVQFGVITMNVKLEDLALPTN	-2.62
HMSPTSSRAAQARIRKMIESESPLKPISDSQLAARLGEEGISIARRTVAKYREQMNILPASQRRGV	-0.351
HMSPVPRIEIELTSSKEDGSWTWRAVGAREPRGSLDGALLAKPAAVGDVLRVETDQFLDGMTVTAILPPRD	-0.263
HMSQAVEISSVKTQIDGKSYYLHTIKQGQTLYGISKAYGVSVEELTTVNPETSKGLKVGQIIKVPDTKT	0.395
HMSQDLVVLGDSMLNNALKAFHIDPNAIKKKYWDKLILDYHLKSKEEVLTEIALGKKINVMVAHQLTSIMD	0.051
HMSQEILSNQSIKDMIELGFEEQTIIDKIQTSTSDFDTTIEELKALKQLGASPTILSAMIKSIKK	1.01
HMSQLDITEARIVVSGGLGMQGPENFKLLEELAKVLGGAVGASRPVVDNGWREYSNQVGQTGKIVAPELYV	0.0901
HMSQLETEEAKRIVLKDLLRLYNNYNIIELEEDEFDRFITYLNMPYDFLQKTSDYDLAVSIKRMYASY	-2.28
HMSQNISSTKLIPENIKIGMSVFVIPLQQKGIVQSLPNRSKEVLVQIGNAKINVKINNLKLIED	-0.142
HMSQNTHTIPSREDILGIFRSVNAPLDPQSLGKTLQVHADSMDVLVRRLKAMERDGQLKSDASGVFSLAD	0.185
HMSQNVQDVFLNHVRKSKNPVTVFLVNGVKLQGIITWFDNFSVLLRREGHTQLVYKHAISTVMPSGPIQLF	0.113
HMSQPALSYAFAKAQGVIVTALGDVAEVARRKGSQPQALAEVRRIAGRPLALREVDDAAFDRLLQDHYARS	-0.646
HMSQQMSYSDFVKAVSARQIREAQIQGDKIYATDSTGNRLTIIRLDNDQRLVDDMINNDVNIIGLEE	0.177
HMSQSDLASAIGARVTIRLREASGGFRDIVGVLQRFGSGYGELINSKGEALTFSESEIAIWREVKA	-2.5
HMSQTELIIVEEEMDGERLDAFLAEQVEQLSRSAVKNLINEGQVLVNGAKQKASYHVREGDEISIEIPEPQ	0.836
